Measured values from patent US20150290319A1.

Columns and labels:
[1] = biological target: MDX1388
[2] = biological target: Clostridium difficile toxin B (whole toxin B) (Clostridium difficile); assay: cell-based or functional assay
[3] = biological target: Clostridium difficile toxin B (whole toxin B) (Clostridium difficile)

Substance | IC50 (read off the curve) [1] [µg/mL] | Mean EC50, neutralization of TcdB on HT-29 cells (xCELLigence) [2] [µg/mL] | Kd [3] [nM] | koff [3] [s⁻¹] | kon [3] [M⁻¹ s⁻¹]
Clostridium difficile toxin B (whole toxin B) | 0.05 | – | – | – | –
MDX1388 (antibody) | – | 125 | 3.84 | 0.000139 | 36200
